# Source: US20110046075A1 (published 2011)
# T1: Fibrinogen (Fg) from human serum (human, UniProt P02671 20-644; P02675 31-491; P02679 27-437)
# T1 construct: The three-chain make-up is from general knowledge; also called Fg species
# T1 sequence 1: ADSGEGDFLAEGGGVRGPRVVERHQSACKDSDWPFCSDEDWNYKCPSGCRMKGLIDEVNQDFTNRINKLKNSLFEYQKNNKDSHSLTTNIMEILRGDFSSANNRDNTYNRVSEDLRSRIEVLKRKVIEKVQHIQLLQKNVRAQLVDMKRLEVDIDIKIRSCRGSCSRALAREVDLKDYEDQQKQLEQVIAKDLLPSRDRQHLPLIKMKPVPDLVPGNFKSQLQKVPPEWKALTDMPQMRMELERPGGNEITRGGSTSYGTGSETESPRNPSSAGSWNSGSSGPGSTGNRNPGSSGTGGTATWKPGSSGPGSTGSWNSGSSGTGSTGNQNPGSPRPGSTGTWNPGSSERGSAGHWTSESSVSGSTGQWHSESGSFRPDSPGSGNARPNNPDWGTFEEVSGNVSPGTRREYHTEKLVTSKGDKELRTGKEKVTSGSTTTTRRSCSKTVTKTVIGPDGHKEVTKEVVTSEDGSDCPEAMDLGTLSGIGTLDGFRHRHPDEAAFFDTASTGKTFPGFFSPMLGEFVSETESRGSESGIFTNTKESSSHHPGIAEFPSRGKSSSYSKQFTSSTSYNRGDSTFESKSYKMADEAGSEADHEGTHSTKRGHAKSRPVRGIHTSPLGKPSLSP
# T1 sequence 2: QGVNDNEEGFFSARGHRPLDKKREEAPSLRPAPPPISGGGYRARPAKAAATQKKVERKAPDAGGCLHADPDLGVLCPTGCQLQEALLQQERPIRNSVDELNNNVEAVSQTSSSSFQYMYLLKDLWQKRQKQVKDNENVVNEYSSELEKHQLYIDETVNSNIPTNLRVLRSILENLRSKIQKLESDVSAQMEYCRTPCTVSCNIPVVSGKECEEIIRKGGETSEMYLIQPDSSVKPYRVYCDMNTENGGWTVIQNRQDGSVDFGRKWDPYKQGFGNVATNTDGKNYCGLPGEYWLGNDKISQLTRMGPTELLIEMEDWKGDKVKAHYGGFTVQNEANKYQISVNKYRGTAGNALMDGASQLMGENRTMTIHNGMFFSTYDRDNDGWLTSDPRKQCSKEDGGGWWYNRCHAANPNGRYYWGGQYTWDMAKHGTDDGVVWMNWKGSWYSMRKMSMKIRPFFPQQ
# T1 sequence 3: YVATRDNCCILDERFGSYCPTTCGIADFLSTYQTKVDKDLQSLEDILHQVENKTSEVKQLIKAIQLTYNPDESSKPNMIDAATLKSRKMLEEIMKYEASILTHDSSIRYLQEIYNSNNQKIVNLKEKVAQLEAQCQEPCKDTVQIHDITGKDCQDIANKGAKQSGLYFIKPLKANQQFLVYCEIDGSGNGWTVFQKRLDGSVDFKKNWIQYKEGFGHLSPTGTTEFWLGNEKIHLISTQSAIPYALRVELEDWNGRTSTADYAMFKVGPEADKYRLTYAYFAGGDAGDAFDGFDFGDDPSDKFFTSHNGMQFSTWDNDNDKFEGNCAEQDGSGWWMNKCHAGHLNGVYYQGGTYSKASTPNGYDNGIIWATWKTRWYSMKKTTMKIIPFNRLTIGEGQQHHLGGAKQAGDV
# B1: Efb-C, C-terminal C3-binding domain of Efb from S. aureus strain Mu50 (other)
# chain: FNKPAAKTDATIKKEQKLIQAQNLVREFEKTHTVSAHRKAQKAVNLVSFEYKVKKMVLQERIDNVLKQGLVR
# notes: Monomer in solution; also called wild-type Efb-C
# B2: SAV1155/Ehp (Efb Homologous Protein), recombinant mature form, S. aureus strain Mu50 (other)
# chain: QTKNVEAAKKYDQYQTNFKKQVNKKVVDAQKAVNLFKRTRTVATHRKAQRAVNLIHFQHSYEKKKLQRQIDLVLKYNTLK
# notes: A recombinant form corresponding to the predicted mature protein
# B3: Extracellular fibrinogen-binding protein (Efb), recombinant full-length, S. aureus strain Mu50 (other)
# chain: ASEGYGPREKKPVSINHNIVEYNDGTFKYQSRPKFNSTPKYIKFKHDYNILEFNDGTFEYGARPQFNKPAAKTDATIKKEQKLIQAQNLVREFEKTHTVSAHRKAQKAVNLVSFEYKVKKMVLQERIDNVLKQGLVR
# Experiments:
# [1] = biological target: T2, Native complement component C3, purified from human plasma (human, UniProt P01024 23-1663, intact thioester (native form)); assay: SPR (Biacore 2000), Efb-C immobilized, native C3 as analyte, surface heterogeneity model, primary site (~90% of the total binding)
# T2 construct: mature; In the serum pull-down and the complement assays, C3 stood in human serum or plasma; also called C3 native; native C3
# Hydrolyzed C3 (C3(H2O)) [2] = biological target: T3, Hydrolyzed C3 (C3(H2O)) (human, UniProt P01024 23-1663, thioester hydrolyzed); assay: SPR kinetics, Efb-C immobilized
# T3 construct: mature; Prepared according to established protocols
# C3b [3] = biological target: T4, C3b (human, UniProt P01024 23-667; P01024 749-1663, limits assumed); assay: SPR kinetics, Efb-C immobilized
# T4 construct: domain: C3b; Prepared according to established protocols
# C3b [4] = biological target: T4, C3b; assay: SPR (Biacore 2000), Efb-C immobilized, C3b as analyte, 1:1 Langmuir model
# Description: (§1) Surface Plasmon Resonance of Efb Binding to Components of the Complement System. All SPR experiments were performed on a Biacore X (ranking) or Biacore 2000 (kinetic profiling) biosensor at 25° C. using 10 mM PBS-T (10 mM sodium phosphate, pH 7.4, 150 mM NaCl, 0.005% Tween-20) as running buffer. […] A separate flow cell was only activated and deactivated, and served as reference surface. 200 nM solutions of the C3 fragments were injected for 3 min at a flow rate of 20 μl/min with a dissociation phase of 3 min. The Efb-C surface was regenerated with two consecutive 30 s pulses of 0.1% SDS and re-equilibrated in running buffer for 10 min. For the kinetic SPR studies, Efb-C was immobilized at lower density (200 RU) and the flow rate was kept at 30 μl/ml in order to avoid mass transport effects. C3 fragments were screened as threefold dilution series (67-0.09 nM; 200-0.09 nM for C3b) in running buffer with injection and dissociation phases of 5 and 10 min, respectively. In order to ensure full reconstitution of the surface after regeneration, the equilibration phase was increased to 30 min. Three buffer blanks were included in each analysis and their average signals were subtracted from the processed sample responses (double referencing). […] The equilibrium dissociation constant (Kd) was calculated from the kinetic parameters as Kd=koff/kₒₙ. […]
# Hydrolyzed C3 (C3(H2O)) [5] = biological target: T3, Hydrolyzed C3 (C3(H2O)); assay: SPR (Biacore 2000), Efb-C immobilized, C3(H2O) as analyte, 1:1 Langmuir model; Kd=koff/kon
# [6] = biological target: T5, Recombinant C3dg (E. coli, pET30 vector with S-tag) (human, UniProt P01024 955-1303); assay: SPR (Biacore 2000), Efb-C immobilized, C3dg as analyte, 1:1 Langmuir model; Kd=koff/kon
# T5 construct: domain: C3dg; not shown: S-tag from the pET30 vector
# C3b [7] = biological target: T4, C3b; assay: SPR (Biacore 2000), Efb-C immobilized, C3b as analyte, 1:1 Langmuir model; Kd=koff/kon
# [8] = biological target: T2, Native complement component C3, …; assay: cell-based or functional assay
# [9] = biological target: T2, Native complement component C3, …; assay: SPR (Biacore 2000), Efb-C immobilized, native C3 as analyte, surface heterogeneity model, primary site; Kd=koff/kon
# [10] = biological target: T1, Fibrinogen (Fg) from human serum; assay: pull-down from human serum on derivatized sepharose, SDS-PAGE and LC-MS/MS
# Hydrolyzed C3 (C3(H2O)) [11] = biological target: T3, Hydrolyzed C3 (C3(H2O)); assay: SPR (Biacore 2000), Efb-C immobilized, C3(H2O) as analyte, 1:1 Langmuir model
# Description: as §1
# C3c = biological target: T6, C3c (human, UniProt P01024 23-667; P01024 749-954; P01024 1321-1663); assay: SPR, Efb-C immobilized, C3c injected, response divided by MW
# T6 construct: domain: C3c; Prepared according to established protocols; also called C3c fragment
# [12] = biological target: T5, Recombinant C3dg (E. coli, pET30 vector …); assay: SPR (Biacore 2000), Efb-C immobilized, C3dg as analyte, 1:1 Langmuir model
# Description: as §1
# T5 sequence (P01024 955-1303): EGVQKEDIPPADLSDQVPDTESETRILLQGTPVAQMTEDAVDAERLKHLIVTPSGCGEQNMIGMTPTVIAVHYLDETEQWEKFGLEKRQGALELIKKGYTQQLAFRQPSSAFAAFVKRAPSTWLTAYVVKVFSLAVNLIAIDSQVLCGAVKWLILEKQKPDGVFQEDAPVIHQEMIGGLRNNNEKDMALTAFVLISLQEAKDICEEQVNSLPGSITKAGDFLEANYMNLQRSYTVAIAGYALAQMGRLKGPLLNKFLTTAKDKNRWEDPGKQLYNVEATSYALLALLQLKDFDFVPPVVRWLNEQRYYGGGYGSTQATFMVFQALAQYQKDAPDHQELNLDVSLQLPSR
# T4 sequence (P01024 23-667 limits assumed, chain 1 of 2): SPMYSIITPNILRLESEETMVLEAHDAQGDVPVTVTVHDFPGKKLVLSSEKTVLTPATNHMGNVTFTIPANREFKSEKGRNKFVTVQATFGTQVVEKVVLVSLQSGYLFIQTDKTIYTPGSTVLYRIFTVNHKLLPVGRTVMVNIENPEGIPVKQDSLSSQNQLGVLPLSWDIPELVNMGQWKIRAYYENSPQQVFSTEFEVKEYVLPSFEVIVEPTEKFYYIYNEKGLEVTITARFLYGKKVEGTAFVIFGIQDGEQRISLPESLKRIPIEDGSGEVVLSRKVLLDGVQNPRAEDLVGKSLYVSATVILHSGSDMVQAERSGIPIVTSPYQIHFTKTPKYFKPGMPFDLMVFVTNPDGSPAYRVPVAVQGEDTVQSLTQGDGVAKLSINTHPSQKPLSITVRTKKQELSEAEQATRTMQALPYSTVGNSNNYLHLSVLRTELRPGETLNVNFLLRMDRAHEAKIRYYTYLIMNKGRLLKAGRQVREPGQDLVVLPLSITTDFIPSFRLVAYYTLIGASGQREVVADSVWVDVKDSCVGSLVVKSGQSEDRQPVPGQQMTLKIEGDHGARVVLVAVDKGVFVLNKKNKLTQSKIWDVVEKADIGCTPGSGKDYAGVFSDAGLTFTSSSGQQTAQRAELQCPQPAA
# T4 sequence (P01024 749-1663 limits assumed, chain 2 of 2): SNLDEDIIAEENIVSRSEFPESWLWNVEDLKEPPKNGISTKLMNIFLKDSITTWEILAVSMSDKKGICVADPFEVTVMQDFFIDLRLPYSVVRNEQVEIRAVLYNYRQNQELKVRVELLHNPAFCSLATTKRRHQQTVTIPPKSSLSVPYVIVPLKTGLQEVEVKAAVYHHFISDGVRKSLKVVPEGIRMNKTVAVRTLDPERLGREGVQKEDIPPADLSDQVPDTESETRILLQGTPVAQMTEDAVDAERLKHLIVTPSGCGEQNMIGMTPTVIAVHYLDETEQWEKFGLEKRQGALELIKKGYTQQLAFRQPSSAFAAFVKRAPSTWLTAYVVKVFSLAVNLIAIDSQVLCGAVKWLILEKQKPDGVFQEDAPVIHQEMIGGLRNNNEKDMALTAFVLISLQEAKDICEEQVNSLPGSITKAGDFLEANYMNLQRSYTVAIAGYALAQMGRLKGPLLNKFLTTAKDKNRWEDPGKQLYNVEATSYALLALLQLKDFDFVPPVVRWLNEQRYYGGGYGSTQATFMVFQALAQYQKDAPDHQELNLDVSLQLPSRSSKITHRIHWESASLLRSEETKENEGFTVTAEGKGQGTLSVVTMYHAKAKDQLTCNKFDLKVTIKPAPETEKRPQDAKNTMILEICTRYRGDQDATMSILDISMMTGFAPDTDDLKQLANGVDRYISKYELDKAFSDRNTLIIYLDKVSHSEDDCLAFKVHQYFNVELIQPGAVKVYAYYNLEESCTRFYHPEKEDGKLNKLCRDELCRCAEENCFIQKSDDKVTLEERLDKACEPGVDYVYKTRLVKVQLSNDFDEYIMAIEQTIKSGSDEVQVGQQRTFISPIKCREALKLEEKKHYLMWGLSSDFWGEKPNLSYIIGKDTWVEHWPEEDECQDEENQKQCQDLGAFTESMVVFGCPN
# T2 sequence (P01024 23-1663): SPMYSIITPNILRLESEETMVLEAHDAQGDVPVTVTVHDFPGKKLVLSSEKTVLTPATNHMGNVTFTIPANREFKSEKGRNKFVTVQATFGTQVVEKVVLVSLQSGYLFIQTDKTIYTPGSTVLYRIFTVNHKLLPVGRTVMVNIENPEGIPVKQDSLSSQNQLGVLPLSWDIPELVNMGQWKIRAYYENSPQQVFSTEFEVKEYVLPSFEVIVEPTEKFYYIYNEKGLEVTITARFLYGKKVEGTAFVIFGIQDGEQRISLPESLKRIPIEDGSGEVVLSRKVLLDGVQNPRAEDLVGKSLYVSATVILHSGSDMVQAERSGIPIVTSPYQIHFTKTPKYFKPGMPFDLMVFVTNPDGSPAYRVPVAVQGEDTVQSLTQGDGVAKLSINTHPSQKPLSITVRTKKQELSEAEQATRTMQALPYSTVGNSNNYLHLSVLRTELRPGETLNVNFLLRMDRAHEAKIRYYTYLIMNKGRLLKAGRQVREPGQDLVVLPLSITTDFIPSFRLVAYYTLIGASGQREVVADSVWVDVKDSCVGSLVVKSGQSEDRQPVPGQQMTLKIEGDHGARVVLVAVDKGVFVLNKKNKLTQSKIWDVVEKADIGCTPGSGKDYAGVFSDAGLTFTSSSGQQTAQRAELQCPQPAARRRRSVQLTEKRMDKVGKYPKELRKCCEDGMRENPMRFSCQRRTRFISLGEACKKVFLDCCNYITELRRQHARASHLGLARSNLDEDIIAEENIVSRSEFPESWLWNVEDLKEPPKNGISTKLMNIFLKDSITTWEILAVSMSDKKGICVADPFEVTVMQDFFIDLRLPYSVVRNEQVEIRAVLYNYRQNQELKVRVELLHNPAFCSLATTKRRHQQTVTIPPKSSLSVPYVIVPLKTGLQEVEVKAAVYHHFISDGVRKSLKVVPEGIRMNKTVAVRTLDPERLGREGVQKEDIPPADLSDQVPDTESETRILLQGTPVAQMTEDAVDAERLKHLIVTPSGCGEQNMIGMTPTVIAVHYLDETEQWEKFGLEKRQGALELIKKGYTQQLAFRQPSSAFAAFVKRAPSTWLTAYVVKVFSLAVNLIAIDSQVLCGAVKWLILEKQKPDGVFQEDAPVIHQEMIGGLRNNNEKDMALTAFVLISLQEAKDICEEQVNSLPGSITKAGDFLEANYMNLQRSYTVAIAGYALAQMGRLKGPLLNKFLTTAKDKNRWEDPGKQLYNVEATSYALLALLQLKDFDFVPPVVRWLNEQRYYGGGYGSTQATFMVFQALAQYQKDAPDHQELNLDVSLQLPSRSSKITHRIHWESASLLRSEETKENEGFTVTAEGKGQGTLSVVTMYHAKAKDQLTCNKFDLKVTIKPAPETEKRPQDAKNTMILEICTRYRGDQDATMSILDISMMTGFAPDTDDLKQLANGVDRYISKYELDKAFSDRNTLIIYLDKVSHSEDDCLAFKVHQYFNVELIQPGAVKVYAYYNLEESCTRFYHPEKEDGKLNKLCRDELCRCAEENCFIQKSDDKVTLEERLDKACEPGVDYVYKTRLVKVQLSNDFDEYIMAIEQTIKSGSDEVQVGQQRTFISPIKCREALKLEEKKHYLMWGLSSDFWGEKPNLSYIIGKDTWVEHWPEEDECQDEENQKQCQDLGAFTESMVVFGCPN
# T3 sequence (P01024 23-1663): as above
# T6 sequence (P01024 23-667 limits assumed, chain 1 of 3): as the sequence (P01024 23-667 limits assumed, chain 1 of 2) above
# T6 sequence (P01024 749-954 limits assumed, chain 2 of 3): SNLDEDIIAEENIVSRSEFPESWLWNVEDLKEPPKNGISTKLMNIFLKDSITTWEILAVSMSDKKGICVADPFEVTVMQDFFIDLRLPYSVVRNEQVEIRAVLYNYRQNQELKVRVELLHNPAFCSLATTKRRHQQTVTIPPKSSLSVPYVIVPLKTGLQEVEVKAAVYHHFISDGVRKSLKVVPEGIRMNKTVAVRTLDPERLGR
# T6 sequence (P01024 1321-1663 limits assumed, chain 3 of 3): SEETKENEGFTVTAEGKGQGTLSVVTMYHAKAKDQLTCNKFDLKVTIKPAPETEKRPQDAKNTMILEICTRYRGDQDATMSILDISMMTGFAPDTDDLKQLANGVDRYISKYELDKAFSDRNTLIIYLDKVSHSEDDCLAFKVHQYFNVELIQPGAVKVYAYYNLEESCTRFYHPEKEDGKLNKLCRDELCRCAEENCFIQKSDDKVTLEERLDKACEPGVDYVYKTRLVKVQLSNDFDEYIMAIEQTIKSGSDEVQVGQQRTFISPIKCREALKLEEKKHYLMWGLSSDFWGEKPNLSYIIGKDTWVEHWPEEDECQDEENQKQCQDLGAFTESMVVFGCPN
binder,measurement,setting,value
B1,koff,[1],9.9e-05 s⁻¹
same,kon,[1],36000 M⁻¹ s⁻¹
same,dissociation rate relative to that of native C3,Hydrolyzed C3 (C3(H2O)) [2],> 70 % greater
same,fold decrease in affinity compared to native C3 and C3(H2O),C3b [3],~3 fold
same,fold difference in affinity to C3dg,C3b [3],~10 fold
same,koff,C3b [4],0.000209 s⁻¹
same,kon,C3b [4],23900 M⁻¹ s⁻¹
same,Kd,Hydrolyzed C3 (C3(H2O)) [5],1.9 nM
same,Kd,[6],0.8 nM
same,Kd,C3b [7],8.8 nM
same,"IC50, inhibition of the alternative pathway of complement activation (ELISA of C3b deposition, human serum)",[8],~410 nM
same,Kd,[9],2.8 nM
same,binding result,[10],no binding (tested: 1:100 dilution of human serum)
same,koff,Hydrolyzed C3 (C3(H2O)) [11],0.000169 s⁻¹
same,kon,Hydrolyzed C3 (C3(H2O)) [11],88900 M⁻¹ s⁻¹
same,binding result,C3c,no binding (tested: 200 nM)
same,koff,[12],0.000218 s⁻¹
same,kon,[12],284000 M⁻¹ s⁻¹
B2,"IC50, inhibition of classical activation of the complement pathway (ELISA detecting fixed C3b to Ag-Ab complex)",[8],590 nM
same,"classical pathway inhibition relative to Efb, on a molar basis",[8],~2 fold
same,"classical pathway inhibition relative to Efb-C, on a molar basis",[8],~50 fold
same,binding result,[10],no binding (tested: 1:100 dilution of human serum)
B3,"IC50, inhibition of the alternative pathway of complement activation (ELISA of C3b deposition, human serum)",[8],~560 nM
same,"molar excess over C3 needed to reach an IC50 concentration, classical pathway",[8],50 fold molar excess over C3
